Data reported in US20260028407A1 (FIBROGEN, published 2026).
Where two headings read alike, the source gives them in different places.

Columns and labels:
human Galectin-9 (Gal9) [1] = biological target: T1, human Galectin-9 (Gal9) (human, UniProt O00182-2 1-323, limits assumed); test: solution equilibrium assay (SEA), human Gal9
T1 construct: also called human Gal9

mouse Galectin-9 (Gal9) [2] = biological target: T2, mouse Galectin-9 (Gal9) (mouse, UniProt O08573-2 2-322, limits assumed); test: solution equilibrium assay (SEA), mouse Gal9
T2 construct: also called mouse Gal9
T2 sequence (O08573 other isoform, or with tags, fused parts or gaps limits assumed): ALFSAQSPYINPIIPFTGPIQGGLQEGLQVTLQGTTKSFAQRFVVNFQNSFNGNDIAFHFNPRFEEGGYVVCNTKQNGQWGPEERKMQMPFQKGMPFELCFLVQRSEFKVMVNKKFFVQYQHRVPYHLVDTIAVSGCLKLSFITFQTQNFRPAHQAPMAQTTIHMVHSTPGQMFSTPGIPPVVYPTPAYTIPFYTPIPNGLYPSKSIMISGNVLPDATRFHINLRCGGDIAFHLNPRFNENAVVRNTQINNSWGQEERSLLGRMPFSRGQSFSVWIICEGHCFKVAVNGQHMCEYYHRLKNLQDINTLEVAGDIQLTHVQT

human Galectin-9 (Gal9) [3] = biological target: T1, human Galectin-9 (Gal9); test: solution equilibrium assay (SEA), human Gal9; remark: listed apart in the source
mouse Galectin-9 (Gal9) [4] = biological target: T2, mouse Galectin-9 (Gal9); test: solution equilibrium assay (SEA), mouse Gal9; remark: listed apart in the source
human Galectin-9 (Gal9) [5] = biological target: T1, human Galectin-9 (Gal9); test: SPR
human Galectin-9 (Gal9) [6] = biological target: T1, human Galectin-9 (Gal9); test: SPR; remark: listed apart in the source
[7] = biological target: T3, Gal9 as added in the T-cell apoptosis and TIM-3 dimerization assays (species not stated); test: cell-based or functional assay
T3 sequence (O00182 whole entry): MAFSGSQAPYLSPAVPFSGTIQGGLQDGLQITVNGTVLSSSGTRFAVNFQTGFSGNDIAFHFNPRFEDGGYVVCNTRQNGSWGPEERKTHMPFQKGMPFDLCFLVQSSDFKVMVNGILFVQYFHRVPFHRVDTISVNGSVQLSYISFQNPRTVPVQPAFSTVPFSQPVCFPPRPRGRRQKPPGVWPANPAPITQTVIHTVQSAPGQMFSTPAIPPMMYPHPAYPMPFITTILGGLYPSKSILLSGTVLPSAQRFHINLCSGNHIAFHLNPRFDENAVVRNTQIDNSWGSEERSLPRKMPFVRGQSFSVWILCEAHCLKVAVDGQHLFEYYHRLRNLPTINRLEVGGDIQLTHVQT

[8] = biological target: T3, Gal9 as added in the T-cell apoptosis …; test: cell-based or functional assay; remark: listed apart in the source
[9] = biological target: T3, Gal9 as added in the T-cell apoptosis …; test: cell-based or functional assay; remark: listed apart in the source
[10] = biological target: T3, Gal9 as added in the T-cell apoptosis …; test: cell-based or functional assay; remark: listed apart in the source

T1 sequence (O00182 other isoform, or with tags, fused parts or gaps limits assumed): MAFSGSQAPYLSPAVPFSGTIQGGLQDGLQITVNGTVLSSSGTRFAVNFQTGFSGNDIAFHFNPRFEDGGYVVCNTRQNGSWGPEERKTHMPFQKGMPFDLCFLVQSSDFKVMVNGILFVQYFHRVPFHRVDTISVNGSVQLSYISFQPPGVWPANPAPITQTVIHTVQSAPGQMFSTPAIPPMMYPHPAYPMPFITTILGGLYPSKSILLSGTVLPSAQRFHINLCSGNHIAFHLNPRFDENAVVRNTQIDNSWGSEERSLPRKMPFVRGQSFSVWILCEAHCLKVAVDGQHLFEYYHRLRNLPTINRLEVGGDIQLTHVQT

Row | Kd (human Galectin-9 (Gal9) [1]) [nM] | Kd (mouse Galectin-9 (Gal9) [2]) [nM] | Kd (human Galectin-9 (Gal9) [3]) [nM] | Kd (mouse Galectin-9 (Gal9) [4]) [nM] | Kd (human Galectin-9 (Gal9) [5]) [nM] | koff (human Galectin-9 (Gal9) [5]) [s⁻¹] | kon (human Galectin-9 (Gal9) [5]) [M⁻¹ s⁻¹] | Kd (human Galectin-9 (Gal9) [6]) [nM] | koff (human Galectin-9 (Gal9) [6]) [s⁻¹] | kon (human Galectin-9 (Gal9) [6]) [M⁻¹ s⁻¹] | IC50 of reducing Gal9-induced CD4+ T cell apoptosis [7] [nM] | IC50 (read off the curve), inhibition of Gal9-induced TIM-3 dimerization [8] [nM] | IC50 (read off the curve), inhibition of Gal9-induced CD4+ T cell apoptosis [9] [nM] | IC50, inhibition of Gal9-induced CD4+ T cell apoptosis (% AnnexinV+PI+ cells) [9] [nM] | IC50, inhibition of Gal9-induced TIM-3 dimerization (RLU, enzyme fragment complementation) [8] [nM] | IC50, inhibition of Gal9-induced CD8+ T cell apoptosis (% AnnexinV+PI+ cells) [10] [nM] | Binder
1 | 3.1 | 49 | 3.1 | 49 | 7.18 | 0.0099 | 1.4e+06 | 4.9 | 0.00077 | 160000 | 18.7 |  |  |  |  |  | antibody A (Ab A), HFB9-2hz11, parental humanized anti-Gal9 antibody (antibody, V domains shown, also called antibody Ab A) VH: QVQLVQSGAEVKKPGASVKVSCKASGYTFTEYTIHWVRQAPGQGLEWMGWFYPGSGSTEYAQKFQGRVTMTADTSISTAYMELSRLRSDDTAVYFCERHGGYDGFDYWGQGTTVTVSS VL: not shown
2 |  |  |  |  |  |  |  |  |  |  |  | ~20 |  |  |  |  | antibody 003 (Ab 003), affinity matured anti-Gal9 antibody (antibody, V domains shown, Full HC/LC entries; they may hold a signal peptide) VH: QVQLVQSGAEVKKPGASVKVSCKASGYPFSSYTIHWVRQAPGQGLEWMGWFYPGSGSTEYAQKFQGRVTMTADTSISTAYMELSRLRSDDTAVYFCEVHGGYDGFDYWGQGTTVTVSS VL: not shown
3 |  |  |  |  |  |  |  |  |  |  | 1.9 | ~20 | ~6 | 6.1 | 25 | 1.34 | antibody 001 (Ab 001), affinity matured anti-Gal9 antibody (antibody, V domains shown, Full HC/LC entries; they may hold a signal peptide) VH: QVQLVQSGAEVKKPGASVKVSCKASGYEFTEYTIHWVRQAPGQGLEWMGWFYPGSGSTWYAQKFQGRVTMTADTSISTAYMELSRLRSDDTAVYFCERHGGYDGFDYWGQGTTVTVSS VL: not shown
